In US20020127673A1 (REGENTS OF THE UNIVERSITY OF MICHIGAN, published 2002):

B1: TRADD (other, UniProt Q15628 1-312, looked up)
chain: MAAGQNGHEEWVGSAYLFVESSLDKVVLSDAYAHPQQKVAVYRALQAALAESGGSPDVLQMLKIHRSDPQLIVQLRFCGRQPCGRFLRAYREGALRAALQRSLAAALAQHSVPLQLELRAGAERLDALLADEERCLSCILAQQPDRLRDEELAELEDALRNLKCGSGARGGDGEVASAPLQPPVPSLSEVKPPPPPPPAQTFLFQGQPVVNRPLSLKDQQTFARSVGLKWRKVGRSLQRGCRALRDPALDSLAYEYEREGLYEQAFQLLRRFVQAEGRRATLQRLVEALEENELTSLAEDLLGLTDPNGGLA
notes: Construct and tag not described
B2: TRAF-6 (other, UniProt Q9Y4K3 1-522, looked up)
chain: MSLLNCENSCGSSQSESDCCVAMASSCSAVTKDDSVGGTASTGNLSSSFMEEIQGYDVEFDPPLESKYECPICLMALREAVQTPCGHRFCKACIIKSIRDAGHKCPVDNEILLENQLFPDNFAKREILSLMVKCPNEGCLHKMELRHLEDHQAHCEFALMDCPQCQRPFQKFHINIHILKDCPRRQVSCDNCAASMAFEDKEIHDQNCPLANVICEYCNTILIREQMPNHYDLDCPTAPIPCTFSTFGCHEKMQRNHLARHLQENTQSHMRMLAQAVHSLSVIPDSGYISEVRNFQETIHQLEGRLVRQDHQIRELTAKMETQSMYVSELKRTIRTLEDKVAEIEAQQCNGIYIWKIGNFGMHLKCQEEEKPVVIHSPGFYTGKPGYKLCMRLHLQLPTAQRCANYISLFVHTMQGEYDSHLPWPFQGTIRLTILDQSEAPVRQNHEEIMDAKPELLAFQRPTIPRNPKGFGYVTFMHLEALRQRTFIKDDTLLVRCEVSTRFDMGSLRREGFQPRSTDAGV
notes: as for B1
B3: IKKβ (enzyme, UniProt O14920 1-756, looked up)
chain: MSWSPSLTTQTCGAWEMKERLGTGGFGNVIRWHNQETGEQIAIKQCRQELSPRNRERWCLEIQIMRRLTHPNVVAARDVPEGMQNLAPNDLPLLAMEYCQGGDLRKYLNQFENCCGLREGAILTLLSDIASALRYLHENRIIHRDLKPENIVLQQGEQRLIHKIIDLGYAKELDQGSLCTSFVGTLQYLAPELLEQQKYTVTVDYWSFGTLAFECITGFRPFLPNWQPVQWHSKVRQKSEVDIVVSEDLNGTVKFSSSLPYPNNLNSVLAERLEKWLQLMLMWHPRQRGTDPTYGPNGCFKALDDILNLKLVHILNMVTGTIHTYPVTEDESLQSLKARIQQDTGIPEEDQELLQEAGLALIPDKPATQCISDGKLNEGHTLDMDLVFLFDNSKITYETQISPRPQPESVSCILQEPKRNLAFFQLRKVWGQVWHSIQTLKEDCNRLQQGQRAAMMNLLRNNSCLSKMKNSMASMSQQLKAKLDFFKTSIQIDLEKYSEQTEFGITSDKLLLAWREMEQAVELCGRENEVKLLVERMMALQTDIVDLQRSPMGRKQGGTLDDLEEQARELYRRLREKPRDQRTEGDSQEMVRLLLQAIQSFEKKVRVIYTQLSKTVVCKQKALELLPKVEEVVSLMNEDEKTVVRLQEKRQKELWNLLKIACSKVRGPVSGSPDSMNASRLSQPGQLMSQPSTASNSLPEPAKKSEELVAEAHNLCTLLENAIQDTVREQDQSFTALDWSWLQTEEEEHSCLEQAS
notes: Construct and tag not described for this test
B4: IKKα (enzyme, UniProt O15111 1-745, looked up)
chain: MERPPGLRPGAGGPWEMRERLGTGGFGNVCLYQHRELDLKIAIKSCRLELSTKNRERWCHEIQIMKKLNHANVVKACDVPEELNILIHDVPLLAMEYCSGGDLRKLLNKPENCCGLKESQILSLLSDIGSGIRYLHENKIIHRDLKPENIVLQDVGGKIIHKIIDLGYAKDVDQGSLCTSFVGTLQYLAPELFENKPYTATVDYWSFGTMVFECIAGYRPFLHHLQPFTWHEKIKKKDPKCIFACEEMSGEVRFSSHLPQPNSLCSLVVEPMENWLQLMLNWDPQQRGGPVDLTLKQPRCFVLMDHILNLKIVHILNMTSAKIISFLLPPDESLHSLQSRIERETGINTGSQELLSETGISLDPRKPASQCVLDGVRGCDSYMVYLFDKSKTVYEGPFASRSLSDCVNYIVQDSKIQLPIIQLRKVWAEAVHYVSGLKEDYSRLFQGQRAAMLSLLRYNANLTKMKNTLISASQQLKAKLEFFHKSIQLDLERYSEQMTYGISSEKMLKAWKEMEEKAIHYAEVGVIGYLEDQIMSLHAEIMELQKSPYGRRQGDLMESLEQRAIDLYKQLKHRPSDHSYSDSTEMVKIIVHTVQSQDRVLKELFGHLSKLLGCKQKIIDLLPKVEVALSNIKEADNTVMFMQGKRQKEIWHLLKIACTQSSARSLVGSSLEGAVTPQTSAWLPPTSAEHDHSLSCVVTPQDGETSAQMIEENLNCLGHLSTIIHEANEEQGNSMMNLDWSWLTE
notes: as for B3
B5: NIK (enzyme, UniProt Q99558 1-947, looked up)
chain: MAVMEMACPGAPGSAVGQQKELPKAKEKTPPLGKKQSSVYKLEAVEKSPVFCGKWEILNDVITKGTAKEGSEAGPAAISIIAQAECENSQEFSPTFSERIFIAGSKQYSQSESLDQIPNNVAHATEGKMARVCWKGKRRSKARKKRKKKSSKSLAHAGVALAKPLPRTPEQESCTIPVQEDESPLGAPYVRNTPQFTKPLKEPGLGQLCFKQLGEGLRPALPRSELHKLISPLQCLNHVWKLHHPQDGGPLPLPTHPFPYSRLPHPFPFHPLQPWKPHPLESFLGKLACVDSQKPLPDPHLSKLACVDSPKPLPGPHLEPSCLSRGAHEKFSVEEYLVHALQGSVSSGQAHSLTSLAKTWAARGSRSREPSPKTEDNEGVLLTEKLKPVDYEYREEVHWATHQLRLGRGSFGEVHRMEDKQTGFQCAVKKVRLEVFRAEELMACAGLTSPRIVPLYGAVREGPWVNIFMELLEGGSLGQLVKEQGCLPEDRALYYLGQALEGLEYLHSRRILHGDVKADNVLLSSDGSHAALCDFGHAVCLQPDGLGKSLLTGDYIPGTETHMAPEVVLGRSCDAKVDVWSSCCMMLHMLNGCHPWTQFFRGPLCLKIASEPPPVREIPPSCAPLTAQAIQEGLRKEPIHRVSAAELGGKVNRALQQVGGLKSPWRGEYKEPRHPPPNQANYHQTLHAQPRELSPRAPGPRPAEETTGRAPKLQPPLPPEPPEPNKSPPLTLSKEESGMWEPLPLSSLEPAPARNPSSPERKATVPEQELQQLEIELFLNSLSQPFSLEEQEQILSCLSIDSLSLSDDSEKNPSKASQSSRDTLSSGVHSWSSQAEARSSSWNMVLARGRPTDTPSYFNGVKVQIQSLNGEHLHIREFHRVKVGDIATGISSQIPAAAFSLVTKDGQPVRYDMEVPDSGIDLQCTLAPDGSFAWSWRVKHGQLENRP
notes: as for B1
B6: Ced-4 (other, UniProt P30429 1-549, looked up)
chain: MLCEIECRALSTAHTRLIHDFEPRDALTYLEGKNIFTEDHSELISKMSTRLERIANFLRIYRRQASELGPLIDFFNYNNQSHLADFLEDYIDFAINEPDLLRPVVIAPQFSRQMLDRKLLLGNVPKQMTCYIREYHVDRVIKKLDEMCDLDSFFLFLHGRAGSGKSVIASQALSKSDQLIGINYDSIVWLKDSGTAPKSTFDLFTDILLMLKSEDDLLNFPSVEHVTSVVLKRMICNALIDRPNTLFVFDDVVQEETIRWAQELRLRCLVTTRDVEISNAASQTCEFIEVTSLEIDECYDFLEAYGMPMPVGEKEEDVLNKTIELSSGNPATLMMFFKSCEPKTFEKMAQLNNKLESRGLVGVECITPYSYKSLAMALQRCVEVLSDEDRSALAFAVVMPPGVDIPVKLWSCVIPVDICSNEEEQLDDEVADRLKRLSKRGALLSGKRMPVLTFKIDHIIHMFLKHVVDAQTIANGISILEQRLLEIGNNNVSVPERHIPSHFQKFRRSSASEMYPKTTEETVIRPEDFPKFMQLHQKFYDSLKNFACC
notes: as for B1
B7: TRAF-1 (other, UniProt Q13077 1-416, looked up)
chain: MASSSGSSPRPAPDENEFPFGCPPTVCQDPKEPRALCCAGCLSENPRNGEDQICPKCRGEDLQSISPGSRLRTQEKAHPEVAEAGIGCPFAGVGCSFKGSPQSVQEHEVTSQTSHLNLLLGFMKQWKARLGCGLESGPMALEQNLSDLQLQAAVEVAGDLEVDCYRAPCSESQEELALQHFMKEKLLAELEGKLRVFENIVAVLNKEVEASHLALATSIHQSQLDRERILSLEQRVVELQQTLAQKDQALGKLEQSLRLMEEASFDGTFLWKITNVTRRCHESACGRTVSLFSPAFYTAKYGYKLCLRLYLNGDGTGKRTHLSLFIVIMRGEYDALLPWPFRNKVTFMLLDQNNREHAIDAFRPDLSSASFQRPQSETNVASGCPLFFPLSKLQSPKHAYVKDDTMFLKCIVETST
notes: as for B1
B8: caspase-1 (enzyme, UniProt P29466 1-404, looked up)
chain: MADKVLKEKRKLFIRSMGEGTINGLLDELLQTRVLNKEEMEKVKRENATVMDKTRALIDSVIPKGAQACQICITYICEEDSYLAGTLGLSADQTSGNYLNMQDSQGVLSSFPAPQAVQDNPAMPTSSGSEGNVKLCSLEEAQRIWKQKSAEIYPIMDKSSRTRLALIICNEEFDSIPRRTGAEVDITGMTMLLQNLGYSVDVKKNLTASDMTTELEAFAHRPEHKTSDSTFLVFMSHGIREGICGKKHSEQVPDILQLNAIFNMLNTKNCPSLKDKPKVIIIQACRGDSPGVVWFKDSVGVSGNLSLPTTEEFEDDAIKKAHIEKDFIAFCSSTPDNVSWRHPTMGSVFIGRLIEHMQEYACSCDVEEIFRKVRFSFEQPDGRAQMPTTERVTLTRCFYLFPGH
notes: as for B1
B9: TRAF-2 (other, UniProt Q12933 1-501, looked up)
chain: MAAASVTPPGSLELLQPGFSKTLLGTKLEAKYLCSACRNVLRRPFQAQCGHRYCSFCLASILSSGPQNCAACVHEGIYEEGISILESSSAFPDNAARREVESLPAVCPSDGCTWKGTLKEYESCHEGRCPLMLTECPACKGLVRLGEKERHLEHECPERSLSCRHCRAPCCGADVKAHHEVCPKFPLTCDGCGKKKIPREKFQDHVKTCGKCRVPCRFHAIGCLETVEGEKQQEHEVQWLREHLAMLLSSVLEAKPLLGDQSHAGSELLQRCESLEKKTATFENIVCVLNREVERVAMTAEACSRQHRLDQDKIEALSSKVQQLERSIGLKDLAMADLEQKVLEMEASTYDGVFIWKISDFARKRQEAVAGRIPAIFSPAFYTSRYGYKMCLRIYLNGDGTGRGTHLSLFFVVMKGPNDALLRWPFNQKVTLMLLDQNNREHVIDAFRPDVTSSSFQRPVNDMNIASGCPLFCPVSKMEAKNSYVRDDAIFIKAIVDLTGL
notes: as for B1
B10: RIP (enzyme, UniProt Q13546 1-671, looked up)
chain: MQPDMSLNVIKMKSSDFLESAELDSGGFGKVSLCFHRTQGLMIMKTVYKGPNCIEHNEALLEEAKMMNRLRHSRVVKLLGVIIEEGKYSLVMEYMEKGNLMHVLKAEMSTPLSVKGRIILEIIEGMCYLHGKGVIHKDLKPENILVDNDFHIKIADLGLASFKMWSKLNNEEHNELREVDGTAKKNGGTLYYMAPEHLNDVNAKPTEKSDVYSFAVVLWAIFANKEPYENAICEQQLIMCIKSGNRPDVDDITEYCPREIISLMKLCWEANPEARPTFPGIEEKFRPFYLSQLEESVEEDVKSLKKEYSNENAVVKRMQSLQLDCVAVPSSRSNSATEQPGSLHSSQGLGMGPVEESWFAPSLEHPQEENEPSLQSKLQDEANYHLYGSRMDRQTKQQPRQNVAYNREEERRRRVSHDPFAQQRPYENFQNTEGKGTAYSSAASHGNAVHQPSGLTSQPQVLYQNNGLYSSHGFGTRPLDPGTAGPRVWYRPIPSHMPSLHNIPVPETNYLGNTPTMPFSSLPPTDESIKYTIYNSTGIQIGAYNYMEIGGTSSSLLDSTNTNFKEEPAAKYQAIFDNTTSLTDKHLDPIRENLGKHWKNCARKLGFTQSQIDEIDHDYERDGLKEKVYQMLQKWVMREGIKGATVGKLAQALHQCSRIDLLSSLIYVSQN
notes: as for B3

Target: T1, HA-tagged wild-type Nod2 (human, UniProt Q9HC29 1-1040)
T1 construct: Expressed by transfection in HEK293T cells and tested in cell lysates; also called wt Nod2; pcDNA3-Nod2-HA; not shown: HA tag
Assay: co-immunoprecipitation from co-transfected HEK293T cells
Excerpt: The CARD motif functions as an effector domain that mediates specific homophilic interaction with downstream CARD-containing molecules (Hofmann et al., Trends Biochem. Sci. 22: 155-156 [1997]).

T1 sequence (Q9HC29 whole entry R703H): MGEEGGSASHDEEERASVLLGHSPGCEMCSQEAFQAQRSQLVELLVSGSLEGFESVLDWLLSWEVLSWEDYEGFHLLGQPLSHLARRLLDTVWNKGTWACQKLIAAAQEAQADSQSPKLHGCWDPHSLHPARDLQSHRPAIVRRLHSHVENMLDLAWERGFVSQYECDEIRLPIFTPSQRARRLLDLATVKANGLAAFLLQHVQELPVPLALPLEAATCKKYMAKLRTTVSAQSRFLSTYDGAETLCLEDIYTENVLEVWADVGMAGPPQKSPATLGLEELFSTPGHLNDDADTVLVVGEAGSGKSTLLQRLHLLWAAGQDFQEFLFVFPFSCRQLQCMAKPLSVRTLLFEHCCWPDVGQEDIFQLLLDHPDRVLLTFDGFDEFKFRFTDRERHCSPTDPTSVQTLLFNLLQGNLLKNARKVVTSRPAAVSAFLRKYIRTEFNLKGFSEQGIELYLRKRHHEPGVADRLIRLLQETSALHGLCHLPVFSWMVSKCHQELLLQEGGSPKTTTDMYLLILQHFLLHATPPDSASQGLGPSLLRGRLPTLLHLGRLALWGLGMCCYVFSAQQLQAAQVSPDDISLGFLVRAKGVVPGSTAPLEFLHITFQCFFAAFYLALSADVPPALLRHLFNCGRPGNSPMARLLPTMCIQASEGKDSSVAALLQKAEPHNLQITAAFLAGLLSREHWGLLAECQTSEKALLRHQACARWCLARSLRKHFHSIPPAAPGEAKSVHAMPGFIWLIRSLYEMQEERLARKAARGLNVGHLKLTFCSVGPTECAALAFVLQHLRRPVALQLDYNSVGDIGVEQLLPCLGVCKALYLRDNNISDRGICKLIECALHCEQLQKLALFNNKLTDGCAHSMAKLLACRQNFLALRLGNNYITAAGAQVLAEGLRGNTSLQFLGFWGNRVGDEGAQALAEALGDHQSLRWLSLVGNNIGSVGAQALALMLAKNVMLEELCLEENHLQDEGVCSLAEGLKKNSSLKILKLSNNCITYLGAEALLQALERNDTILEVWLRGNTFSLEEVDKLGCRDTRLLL

Binding result, no binding:
B1
B2
B3
B4
B5
B6
B7
B8
B9
B10
